Assay results as given in publication PMC12757645, “Bacillus subtilis encodes three N-acetylcysteine deacetylase enzymes that can catalyze the final step in S-(2-succino)cysteine breakdown” (The Journal of Biological Chemistry, 2025).

B1: YtnL (Bacillus subtilis subsp. subtilis str. 168) (protein)
chain: MSLDYWRNIEGSYPYQTTGNDILTLKEESNPVNLSTLEKQLIGIRRHLHQYPELSKEEFETTAFIKKCLKEKGIQIRPTALKTGVFADIAGESEGPAIALRADIDALPIEEKTGLPYASKHKGIMHACGHDFHTAALLGAAFLLKENQDSLKGKIRLLFQPAEEAGAGATKVIEDGQLDGIDAVIGLHNKPDIAVGTVGLKTGPLMAAVDRFKVEIEGKGAHAALPHNGFDPIIGASQLIVALQTIVSRNVNPLQSAILTVGKINGGSTWNVIPDTVVIEGTVRTFDSEVRNQVKQRFFAVTEQISAAFSLKANVKWHSGPPPLCNDEAITGLVRDAAHKAKLQVIDPAPSTAGEDFAYYLEHIPGSFAFFGTDGDHDWHHPAFTIDETAIIKASYFLYESAKRLLDSNEESKISD
B2: ScmP (Bacillus subtilis subsp. subtilis str. 168) (protein)
chain: MADKAFHTRLINMRRDLHEHPELSFQEVETTKKIRRWLEEEQIEILDVPQLKTGVIAEIKGREDGPVIAIRADIDALPIQEQTNLPFASKVDGTMHACGHDFHTASIIGTAMLLNQRRAELKGTVRFIFQPAEEIAAGARKVLEAGVLNGVSAIFGMHNKPDLPVGTIGVKEGPLMASVDRFEIVIKGKGGHAGIPNNSIDPIAAAGQIISGLQSVVSRNISSLQNAVVSITRVQAGTSWNVIPDQAEMEGTVRTFQKEARQAVPEHMRRVAEGIAAGYGAQAEFKWFPYLPSVQNDGTFLNAASEAAARLGYQTVHAEQSPGGEDFALYQEKIPGFFVWMGTNGTEEWHHPAFTLDEEALTVASQYFAELAVIVLETIK
B3: YhaA (Bacillus subtilis subsp. subtilis str. 168) (protein)
chain: MSISTLQKEINKQLDGCFEEMVEIRRHFHMYPELSFQEEKTAAFIASYYESLGVPIRTNVGGRGVLANIEGSEPGPTVALRADFDALPIQDEKDVPYASKVPGVMHACGHDGHTAALLAVAKVLHQNRHELKGTFVMIHQHAEEYYPGGAKPMIDDGCLENTDVIFGTHLWATEPLGTILCRPGAVMAAADRFTIKVFGKGGHGAHPHDTKDAVLIGSQIVSSLQHIVSRKVNPIQSAVISTGSFIADNPFNVIADQAVLIGTARSFDENVRDILEKEIEAVVKGICSMHGASYEYTYEQGYPAVVNHPAETNHLVSTAKNTEGVQQVIDGEPQMGGEDFAYYLQNVKGTFFFTGAAPEQPERVYSHHHPKFDINEKAMLTAAKVLAGAAITYHQL

Substrate: CC(=O)N[C@@H](CS)C(=O)O
Experiment: purified protein
Type: biochemical, Bacillus subtilis
Conditions: 50 mM potassium phosphate pH 7.8, 5 mM CoCl2, 37 °C

Protein	Km [µM]	Vmax [µmol/min/mg]	kcat [s⁻¹]	kcat/Km [M⁻¹ s⁻¹]
B1	855.0 ± 339.2	43	34.2 ± 3.8	40000 ± 11000
B2	494.5 ± 67.4	112	82.5 ± 9.2	
B3	895.8 ± 338.1	24.7	18.8 ± 1.3	21000 ± 3700
